According to patent US20250230251A1 (Bristol-Myers Squibb, published 2025):
Substitutions are numbered along the chain they refer to.

T1: IL-18:IL-18Rα complex (human, UniProt Q14116 37-193; Q13478 19-329, limits assumed)
T1 construct: Made by mixing 1.6 uM IL-18 with 100 nM IL-18Ra-Fc-His; also called complexed IL-18: IL-18Rα; not shown: Fc and His tag of the bought fusion protein, not described
T1 sequence (looked up) 1: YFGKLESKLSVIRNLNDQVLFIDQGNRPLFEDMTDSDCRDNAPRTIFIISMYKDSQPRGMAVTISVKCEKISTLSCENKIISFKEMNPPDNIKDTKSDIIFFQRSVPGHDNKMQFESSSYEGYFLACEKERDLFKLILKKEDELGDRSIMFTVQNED
T1 sequence (looked up) 2: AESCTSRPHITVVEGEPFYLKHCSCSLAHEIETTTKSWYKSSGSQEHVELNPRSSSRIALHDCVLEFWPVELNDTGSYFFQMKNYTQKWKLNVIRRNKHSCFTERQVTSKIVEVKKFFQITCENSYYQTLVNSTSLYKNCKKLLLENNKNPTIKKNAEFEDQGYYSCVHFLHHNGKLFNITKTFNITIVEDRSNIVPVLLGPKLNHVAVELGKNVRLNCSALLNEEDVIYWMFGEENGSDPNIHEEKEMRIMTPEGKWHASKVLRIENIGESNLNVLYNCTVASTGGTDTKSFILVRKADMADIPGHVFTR

T2: cyIL-18Rβ-HisAvi (cynomolgus monkey)
T2 construct: Soluble analyte in SPR; also called cyno IL-18Rβ; cynomolgus monkey IL-18Rβ
T2 chain: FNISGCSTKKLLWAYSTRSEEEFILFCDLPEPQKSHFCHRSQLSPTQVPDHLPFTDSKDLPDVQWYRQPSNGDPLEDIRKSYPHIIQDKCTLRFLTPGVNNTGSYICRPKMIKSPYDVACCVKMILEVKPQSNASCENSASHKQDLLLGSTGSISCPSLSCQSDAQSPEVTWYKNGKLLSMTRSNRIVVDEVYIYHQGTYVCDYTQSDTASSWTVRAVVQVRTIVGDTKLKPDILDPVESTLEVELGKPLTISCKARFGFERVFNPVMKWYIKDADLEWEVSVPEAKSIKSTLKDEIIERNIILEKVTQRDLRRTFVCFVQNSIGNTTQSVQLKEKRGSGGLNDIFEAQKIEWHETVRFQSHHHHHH

T3: human IL-18Rβ on cells (human, UniProt O95256 20-599)
T3 sequence: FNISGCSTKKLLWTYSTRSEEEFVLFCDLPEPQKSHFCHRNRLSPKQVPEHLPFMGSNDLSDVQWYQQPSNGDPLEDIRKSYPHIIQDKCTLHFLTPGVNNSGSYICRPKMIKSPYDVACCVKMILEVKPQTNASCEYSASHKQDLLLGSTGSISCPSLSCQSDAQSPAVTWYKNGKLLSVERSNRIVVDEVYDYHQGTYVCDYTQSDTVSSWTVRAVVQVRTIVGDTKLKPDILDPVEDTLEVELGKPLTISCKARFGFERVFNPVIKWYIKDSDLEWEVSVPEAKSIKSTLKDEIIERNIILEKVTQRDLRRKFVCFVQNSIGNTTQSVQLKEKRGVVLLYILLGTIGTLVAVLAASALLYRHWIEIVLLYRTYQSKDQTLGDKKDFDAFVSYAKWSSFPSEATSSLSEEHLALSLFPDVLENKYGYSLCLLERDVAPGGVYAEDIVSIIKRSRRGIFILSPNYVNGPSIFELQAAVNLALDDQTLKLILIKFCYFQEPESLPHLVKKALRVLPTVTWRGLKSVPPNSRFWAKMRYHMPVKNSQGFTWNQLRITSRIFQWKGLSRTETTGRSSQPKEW

B1: huIL-18Rβ-HisAvi (receptor)
chain: FNISGCSTKKLLWTYSTRSEEEFVLFCDLPEPQKSHFCHRNRLSPKQVPEHLPFMGSNDLSDVQWYQQPSNGDPLEDIRKSYPHIIQDKCTLHFLTPGVNNSGSYICRPKMIKSPYDVACCVKMILEVKPQTNASCEYSASHKQDLLLGSTGSISCPSLSCQSDAQSPAVTWYKNGKLLSVERSNRIVVDEVYDYHQGTYVCDYTQSDTVSSWTVRAVVQVRTIVGDTKLKPDILDPVEDTLEVELGKPLTISCKARFGFERVFNPVIKWYIKDSDLEWEVSVPEAKSIKSTLKDEIIERNIILEKVTQRDLRRKFVCFVQNSIGNTTQSVQLKEKR
modifications: biotinylated in the Octet blocking assay
notes: Soluble analyte in all SPR runs; captured on streptavidin sensors in the Octet assay; also called human IL-18Rβ; human IL-18Rβ-Avi-His
B2: P20-V4 (antibody, human IgG1, kappa, name in Kabat numbering)
heavy: QVQLQESGPGLVKPSETLSLTCTVSGGSINNYYWSWIRQPPGKGLEWIGYIFYSGTTNYNPSLKSRVTISVDTSKNQFSLKLSSVTAADTAVYYCARDVGIAARNSYYYVMDVWGQGTTVTVSSASTKGPSVFPLAPSSKSTSGGTAALGCLVKDYFPEPVTVSWNSGALTSGVHTFPAVLQSSGLYSLSSVVTVPSSSLGTQTYICNVNHKPSNTKVDKRVEPKSCDKTHTCPPCPAPEAEGAPSVFLFPPKPKDTLMISRTPEVTCVVVDVSHEDPEVKFNWYVDGVEVHNAKTKPREEQYNSTYRVVSVLTVLHQDWLNGKEYKCKVSNKALPAPIEKTISKAKGQPREPQVYTLPPSREEMTKNQVSLTCLVKGFYPSDIAVEWESNGQPENNYKTTPPVLDSDGSFFLYSKLTVDKSRWQQGNVFSCSVMHEALHNHYTQKSLSLSPG
light: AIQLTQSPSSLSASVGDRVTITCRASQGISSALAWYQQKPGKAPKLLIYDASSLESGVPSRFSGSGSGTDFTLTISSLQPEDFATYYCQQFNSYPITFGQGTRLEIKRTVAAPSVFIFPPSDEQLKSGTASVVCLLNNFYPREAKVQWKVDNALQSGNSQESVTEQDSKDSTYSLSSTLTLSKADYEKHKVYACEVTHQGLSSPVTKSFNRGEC
notes: built from the chains of the parent P20 with the printed mutations
B3: P20-V5 (antibody, human IgG1, kappa, name in Kabat numbering)
heavy: B2 heavy with E6Q
light: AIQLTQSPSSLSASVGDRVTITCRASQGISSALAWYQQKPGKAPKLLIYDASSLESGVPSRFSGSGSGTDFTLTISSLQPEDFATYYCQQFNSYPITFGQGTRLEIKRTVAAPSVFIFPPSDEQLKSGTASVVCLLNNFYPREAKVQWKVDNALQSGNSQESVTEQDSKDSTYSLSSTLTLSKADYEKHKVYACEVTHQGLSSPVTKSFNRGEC
notes: built from the chains of the parent P20 with the printed mutation

What was measured:
[1] = molecular target: T1, IL-18:IL-18Rα complex; assay: Octet RED384 BLI, complex on sensor-captured biotin-hIL-18Rβ-Avi-His after the 50 nM antibody step
[2] = molecular target: T2, cyIL-18Rβ-HisAvi; assay: SPR T200, mAb on anti-hFc, 37C, pH 6
[3] = molecular target: B1; assay: SPR T200, mAb on anti-hFc, 37C, pH 6
[4] = molecular target: T2, cyIL-18Rβ-HisAvi; assay: SPR T200, mAb on anti-hFc, 37C, pH 7.4
[5] = molecular target: B1; assay: SPR T200, mAb on anti-hFc, 37C, pH 7.4
[6] = molecular target: B1; assay: SPR T200, pH 7.4 and pH 6
[7] = molecular target: T3, human IL-18Rβ on cells; assay: cell-based or functional assay

binding result [1]	Kd [2] [nM]	koff [2] [s⁻¹]	kon [2] [M⁻¹ s⁻¹]	Kd [3] [nM]	koff [3] [s⁻¹]	kon [3] [M⁻¹ s⁻¹]	Kd [4] [nM]	koff [4] [s⁻¹]	kon [4] [M⁻¹ s⁻¹]	Kd [5] [nM]	koff [5] [s⁻¹]	kon [5] [M⁻¹ s⁻¹]	fold weaker binding than the parent P20 [6] [fold]	IC50, LPS+IL-12 dependent IFNg production, human whole blood [7] [nM]	fold weaker off-rate and KD than the parent P20 [6] [fold]	Binder
binds																B1
	42	0.002	48000	14	0.0037	270000	88	0.002	23000	42	0.0018	44000	100	37.6		B2
	5.5	0.00097	180000	1.8	0.00059	340000	40	0.0013	34000	19	0.0011	56000		21.2	10	B3
